The results in this text go back to PMC10998878, “Inhibition of acyl-CoA binding protein (ACBP) by means of a GABAARγ2-derived peptide” (Cell Death & Disease, 2024).

Where no end group is shown, it is not given here.

Data set [1] deals with Huh-7 cells. Briefly: WST-8 conversion (metabolic activation) by Huh-7 cells. It counts as cell-based, human. The note with it: for effect on RecACBP/DBI-stimulated WST-8 conversion: then RecACBP/DBI 4 h, n = 4. Here is the method:
Media and cell culture supplements were purchased from Gibco-Invitrogen (Carlsbad, CA, USA). Plasticware was purchased from Corning B.V. Life Sciences (Schiphol-Rijk, The Netherlands). Unless reported otherwise, the cell line used in this study was cultured at standard conditions (37 °C, 5% CO2, Dulbecco’s modified Eagle’s medium containing 10% fetal bovine serum, 10 mM HEPES buffer, 100 mg/L sodium pyruvate, 100 U/mL penicillin G sodium, and 100 µg/mL streptomycin sulfate). 2-deoxy-D-glucose (# D8375) and rotenone (# R8875) were purchased from Sigma (Burlington, MA, USA). Human hepatocellular carcinoma (Huh-7) cell line was used for in vitro experiments. Cells were plated in 6- or 96-well plates and grown for 24 h before treatments.
WST-8 conversion assays were conducted utilizing the Cell Counting Kit-8 (Sigma-Aldrich, #96992). Cells were seeded in a 96-well plate at a density of 3000 cells per well and incubated overnight for adherence. Then, the culture medium was removed, and fresh medium containing the specified treatments was added to the wells. Immediately following the addition of treatments, 10 μL of CCK-8 reagent was introduced to each well. Subsequently, the cells were incubated for 4.5 h at 37 °C to facilitate the conversion of WST-8 in response to cellular activity. Following the incubation period, the absorbance at 450 nm was quantified using a VICTOR® Nivo™ microplate reader. This measurement served as an indicator of WST-8 conversion, reflecting cellular metabolic activity.
Fig. 6 Inhibition of the metabolic effects of ACBP/DBI on hepatocytes by the GABAARγ2-derived eicosapeptide. A WST-8 conversion by murine primary hepatocytes treated with increasing concentrations of recombinant ACBP/DBI protein (RecACBP/DBI) for 4 h. Hepatocytes were isolated from tamoxifen-induced Acbp/Dbi f/f or Acbp/Dbi KO full-body genetic background mice (white- or blue-colored graphs respectively). […] For statistical analysis p values are calculated by one-way ANOVA. B WST-8 conversion by control (shUNR) and ACBP/DBI-knocked down (shACBP/DBI) human Huh-7 cells treated with increasing concentrations of RecACBP/DBI for 4 h. shUNR and shACBP/DBI cells are represented by white- or blue-colored graphs respectively. […] C WST-8 conversion by Huh-7 cells treated with RecACBP/DBI or negative control (4 h). Cells were pre-treated with 2-deoxy-D-glucose (2-Deoxy-D-glu; 300 µM) or vehicle (2 h). […] D WST-8 conversion by Huh-7 cells treated with RecACBP/DBI or negative control (4 h). Cells were pre-treated with rotenone (0.5 µM) or vehicle (2 h). […] E WST-8 conversion by Huh-7 cells treated with RecACBP/DBI or negative control (4 h). Prior to administration, RecACBP/DBI was overnight pre-incubated with monoclonal antibody (α-ACBP/DBI) or isotype IgG1. […] F WST-8 conversion by Huh-7 cells treated with RecACBP/DBI or negative control (4 h). Prior to administration, RecACBP/DBI was overnight pre-incubated with GABAARγ2 (WT or F77I-mutated) eicosapeptides.

Data set [2] relates to native ACBP/DBI protein (mouse liver extracts). Briefly: Pull down / immunoprecipitation of native ACBP/DBI from liver extracts. In kind it is binding. The note with it: mouse liver protein extract (500 μg), peptide-coated beads, overnight 4 °C, immunoblot for ACBP. Here is the method:
The physical interaction between the native ACBP and GABAARγ2 peptides was examined by standard immunoprecipitation (IP) and immunoblotting protocols. In detail, liver protein extracts (500 μg) were immunoprecipitated on protein A/G-Sepharose beads (Merck Millipore, Burlington, MA, USA, #GE17-0618-01) coated with (1× 2× 4×) either GABAARγ2 wild type (WT) or mutated (F77I) eicosapeptide (Biosynth ltd) or its negative control (PBS). Each IP reaction was incubated overnight (4 °C) in a rotation chamber followed by three consecutive rounds of PBS washing the next day. Each washing round included a PBS resuspension of the pellet and a re-centrifugation (12,000 × g, 4 °C). Finally, beads were resuspended in 20 μL of NUPAGE 4× buffer (Life Technologies, CA, USA, #NP0008), heated at 100 °C (10 min), followed by standard immunoblotting for the ACBP protein (Abcam #ab231910).
Fig. 5 Biophysical and biochemical detection of a direct interaction between ACBP/DBI and the GABAARγ2-derived eicosapeptide. A Schematic representation of the GABAAR and the GABAARγ2-derived eicosapeptides. B Surface plasmon resonance kinetics of ACBP-GABAARγ2-derived eicosapeptide (WT and F77I) interactions. Representative ACBP immunoblot (C) from control- or GABAARγ2-immunoprecipitated samples. Anti-GABAARγ2 immunoprecipitation (IP) assay was employed in order to validate the GABAARγ2 WT peptide interaction with native ACBP (in murine hepatic protein extracts), and quantification (D). […] For statistical analysis p value (indicating statistical comparisons with the control condition) was calculated by Mann–Whitney U-test. E Anti-GABAARγ2 IP assay to address the physical interaction between GABAARγ2 peptides and murine hepatic ACBP protein. Interaction was validated using an increasing gradient of biotinylated WT/F77I peptides that were bound on the surface of streptavidin beads as part of the IP assay. […]

Data set [3] deals with T1, recombinant murine ACBP/DBI (acyl-CoA binding protein / diazepam binding inhibitor) (mouse, UniProt P31786 1-87, biotin (site not stated; for the SPR chip)).
T1 construct: Biotinylated for immobilisation on the SA chip; in the food intake experiment murine RecACBP/DBI was injected and no biotin is mentioned; also called RecACBP/DBI; recombinant ACBP/DBI; source: recombinant, from the Institute of Psychiatry and Neuroscience of Paris, France
T1 sequence (looked up): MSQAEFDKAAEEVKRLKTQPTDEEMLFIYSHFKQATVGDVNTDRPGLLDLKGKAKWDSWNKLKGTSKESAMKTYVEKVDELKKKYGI
As to the kind of experiment: SPR; Biacore 2000; biotinylated ACBP/DBI immobilised on SA chip (1600 RU); peptides injected at 10 µM and 100 µM in HBS-EP, 30 µL/min, 25 °C; association 4 min, dissociation 5 min; control surface streptavidin alone. The conditions noted are these: both partners purified.

Data set [4] deals with primary mouse hepatocytes. Briefly: WST-8 conversion (metabolic activation) by primary hepatocytes. In kind it is cell-based. The note with it: Acbp/Dbi f/f and KO, increasing concentrations of RecACBP/DBI, 4 h (text: within 4.5 h), n = 3. Here is the method:
After filtration through a 100 µm cell strainer and successive centrifugations at 30 × g, 4 °C for 5 min, cells were resuspended in the following attachment culture medium: DMEM/F12, 20 mM HEPES (pH = 7.4), 5 mM glucose, 10% FBS (Sigma), 5 mg/mL BSA, 100 U/mL penicillin, and 100 μg/mL streptomycin. The cells were then purified by density gradient centrifugation using an isotonic solution of Percoll (GE Healthcare Bio-Sciences AB, Uppsala, Sweden). Cell viability was assessed using Trypan blue exclusion. Cells were plated in a 96-well plate overnight to facilitate cell attachment before proceeding with experiments.
WST-8 conversion assays were conducted utilizing the Cell Counting Kit-8 (Sigma-Aldrich, #96992). Cells were seeded in a 96-well plate at a density of 3000 cells per well and incubated overnight for adherence. Then, the culture medium was removed, and fresh medium containing the specified treatments was added to the wells. Immediately following the addition of treatments, 10 μL of CCK-8 reagent was introduced to each well. […] Following the incubation period, the absorbance at 450 nm was quantified using a VICTOR® Nivo™ microplate reader. […]
Fig. 6 Inhibition of the metabolic effects of ACBP/DBI on hepatocytes by the GABAARγ2-derived eicosapeptide. […] For statistical analysis p values are calculated by one-way ANOVA. […]

In data set [5] the test system is C57BL/6 mice. Briefly: Food intake after intravenous injection. It counts as in vivo, mouse. The conditions noted are these: i.v., 0.5 mg/kg, after 24 h starvation, cumulative food intake 30 min, n = 4 to 9. Here is the method: Prior to experimentation, mice were subjected to 24 h starvation followed by individual housing and acclimatization in individual cages (2 h). Subsequently, mice were intravenously (i.v.) injected with recombinant ACBP/DBI protein (RecACBP/DBI) (total volume of 200 μL, 0.5 mg/kg body weight), either alone or in combination with GABAARγ2 peptides (5× molar excess). Cumulative food intake was then analyzed as previously described. Prior to i.v. injections, the RecACBP mixes were pre-incubated (16 h, 4 °C) with GABAARγ2 peptides.

With `C=C(C)[C@H]1Cc2c(ccc3c2O[C@@H]2COc4cc(OC)c(OC)cc4[C@@H]2C3=O)O1` [rotenone, reference compound], the “effect on RecACBP/DBI-stimulated WST-8 conversion” value in data set [1] (pre-treated with rotenone 0.5 µM for 2 h) is “abolished”.

In the case of “Biotinylated GABAARγ2-EP-WT: Biotinylated GABAARγ2-EP-WT immobilized on streptavidin-precoated beads (INMEYTIDIFFAQTWYDRRL; also: biotin, site not given here)”, the “pull down of endogenous/native ACBP/DBI, in words” value in data set [2] is “absorbed endogenous ACBP/DBI protein from mouse liver extracts”.

`O=CC[C@@H](O)[C@H](O)[C@H](O)CO` [2-deoxy-D-glucose, reference compound]: in data set [1] (pre-treated with 2-deoxy-D-glucose 300 µM for 2 h), the “effect on RecACBP/DBI-stimulated WST-8 conversion” value is “abolished”.

B1: GABAARγ2-derived eicosapeptide, wild type (GABAARγ2-EP-WT) (peptide)
peptide: INMEYTIDIFFAQTWYDRRL
notes: GABAA receptor gamma-2 subunit (GABRG2), 20-mer with F77 in position 10; 100% identical in zebrafish, chicken, mouse and human; Stocked in DMSO at 1 mg/mL; used without a stated biotin in SPR and in the functional tests; also called GABAARγ2 WT peptide; WT EP; source: synthetic peptide (Biosynth ltd)
Regarding B1, the binding result in data set [3] is “binds”.

B2: recombinant ACBP/DBI protein: recombinant acyl-CoA binding protein encoded by diazepam binding inhibitor (protein)
chain: MSQAEFDKAAEEVKRLKTQPTDEEMLFIYSHFKQATVGDVNTDRPGLLDLKGKAKWDSWNKLKGTSKESAMKTYVEKVDELKKKYGI
modifications: biotin (site not stated; for the SPR chip)
For the molecule B2, the “WST-8 conversion, metabolic activation by the substance” value in data set [1] (shUNR and shACBP/DBI, increasing concentrations of RecACBP/DBI, 4 h (text: within 4.5 h), n = 8–9) was “increase in the capacity to reduce”; in data set [4], “increase in the capacity to reduce”. The “food intake / appetite, effect of recombinant ACBP/DBI” value in data set [5] is “induced an increase in appetite”.
